Here are results for one molecule from patent US20190359653A1, “SELECTIVE PEPTIDE INHIBITORS OF FRIZZLED” (Genentech, Inc., priority 2016, published 2019).

The test deals with FZD7 class proteins. The experiment in a line: ELISA of biotinylated Wnt binding to FZD CRD-Fc with or without peptide. Background: ELISA stands for enzyme-linked immunosorbent assay.

B1: Biotinylated Wnt5a (ligand)
chain: IIGAQPLCSQLAGLSQGQKKLCHLYQDHMQYIGEGAKTGIKECQYQFRHRRWNCSTVDNTSVFGRVMQIGSRETAFTYAVSAAGVVNAMSRACREGELSTCGCSRAARPKDLPRDWLWGGCGDNIDYGYRFAKEFVDARERERIHAKGSYESARILMNLHNNEAGRRTVYNLADVACKCHGVSGSCSLKTCWLQLADFRKVGDALKEKYDSAAAMRLNSRGKLVQVNSRFNSPTTQDLVYIDPSPDYCVRNESTGSLGTQGRLCNKTSEGMDGCELMCCGRGYDQFKTVQTERCHCKFHWCCYVKCKKCTEIVDQFVCK
modifications: Biotinylated with the Pierce reagent cat no. 21338; the positions are not stated and the letters are unchanged. The lipid modification of Wnt (fatty acyl moiety) is not carried by the letters.
On to B1, for which the fold enhancement of binding by Fz7-21 or dFz7-21 lay within 1.5 to 2 fold.
